Data from FireProtDB (doi:10.1016/j.jmb.2005.09.091).

Settings: Kitasatospora aureofaciens, Thermal, CD, whole UniProt chain shown

B1: Guanyl-specific ribonuclease Sa wild type, P05798 (protein)
chain: DVSGTVCLSALPPEATDTLNLIASDGPFPYSQDGVVFQNRESVLPTQSYGYYHEYTVITPGARTRGTRRIITGEATQEDYYTGDHYATFSLIDQTC
In the case of B1, the Tm (pH 3, Glycine 30 mM) is reported as 39.9 °C, the “unfolding enthalpy (van 't Hoff)” value (pH 3, Glycine 30 mM) is reported as 81 kcal/mol and the Tm (pH 7, Mops 30 mM) is reported as 47.8 °C. The “unfolding enthalpy (van 't Hoff)” value (pH 7, Mops 30 mM) was 91 kcal/mol, the Tm (pH 8.5, Mops 30 mM) was 38.7 °C and the “unfolding enthalpy (van 't Hoff)” value (pH 8.5, Mops 30 mM) was 84 kcal/mol.
